Patent US20020015981A1 (Amgen, published 2002)

Target: T1, human α2-polyHis-tag (human, UniProt Q96T91 24-129)
T1 construct: also called human α2 polypeptide; alpha-2; not shown: polyHis tag
T1 sequence (looked up): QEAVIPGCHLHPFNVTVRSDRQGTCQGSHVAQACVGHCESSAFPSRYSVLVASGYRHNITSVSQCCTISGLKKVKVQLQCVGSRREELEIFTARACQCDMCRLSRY
Test: heterodimerization assay: co-transfection, immunoprecipitation, Western blot
Description: A human α2-polyHis-tag mammalian expression vector and a human β10-FLAG-tag mammalian expression vector were co-transfected into 293 cells and serum free conditioned media was harvested after 72 hours. Immunoprecipitation was done using anti-FLAG M2-Agarose affinity beads (Cat# A1205, Sigma, St. Louis, Mo.). A Western blot of this immunoprecipitate was probed with affinity purified anti-α2 rabbit polyclonal antibodies (example 4) that had been conjugated to Horse Radish Peroxidase (Linx HRP Rapid Protein Conjugation Kit, cat# K8050-01, Invitrogen Corp., Carlsbad, Calif.). A strong α2-polyHis-tag band was observed using the ECL Western Blot detection kit (cat#RPN 2106, Amersham Pharmacia Biotech, Piscataway, N.J.). […] No α2-polyHis-tag band was observed if either of these 2 components was left out of the experiment or if plain agarose beads (i.e. without anti-FLAG antibodies) were used for the immunoprecipitation step.

- binding result: binds
B1: human β10-FLAG-tag (ligand)
chain: ASSGNLRTFVGCAVREFTFLAKKPGCRGLRITTDACWGRCETWEKPILEPPYIEAHHRVCTYNETKQVTVKLPNCAPGVDPFYTYPVAIRCDCGACSTATTECETI
notes: Secreted from transfected 293 cells; the cleavage site is predicted, not determined; also called human β10 polypeptide; beta-10; not shown: FLAG tag
